Assay results published in US7648964B2, “Use of lacritin in promoting ocular cell survival” (University of Virginia Patent Foundation, priority 2004, dated 2010).

Columns and labels:
[1] = test system: human corneal epithelial cells; assay: Calcium signaling in human corneal epithelial cells (Fluo-3AM); format: cell-based; settings: HCE cells
Description: Freshly isolated rat lacrimal acinar cells, and HSG (human salivary gland) ductal and HCE (human corneal epithelial) cell lines were used to study lacritin function. For secretion studies, rat acinar cells were plated serum-free overnight on wells co-coated with 0.05 μM laminin 1 (to ensure adhesion) and 0 to 20 μM lacritin, or alternatively with laminin-1 (0.05 μM) and treated the next day with serum-free medium containing 0 to 162 ng/ml of soluble lacritin for four hours. Unstimulated and stimulated (carbachol 10^−4 M/VIP 10^−8 M) secretions were then collected, assessed (peroxidase assay) and normalized to μg cellular DNA. To study tyrosine phosphorylation, overnight serum-free cultures of both rat lacrimal acinar and HSG cells were washed and treated with 10 ng/ml of soluble lacritin for 0.5, 2.5, 10, and 30 minutes. Py(20) anti-phosphotyrosine antibody immunoprecipitation of cell lysates was then examined in Western blots of 7% SDS PAGE gels using Py(20) and ECL for detection. […] Using an inverted Zeiss 510 LSM for visualization, 50 second baseline images were first recorded. While the laser was running, lacritin was added (final concentration 4 and 40 ng/ml) and the response continually monitored every 786 msec for a minimum of 200 sec.

ECM binding ELISA = settings: 0-30 nM lacritin
Description: (§1) Binding studies were carried out in 96 well plates coated with 10 μg/well of collagen IV, laminin-1, entactin/nidogen-1, collagen I, fibronectin, vitronectin, EGF, heparin or BMS. Wells were washed, blocked (PBS-T), incubated with 0-30 nM lacritin (in PBS-T containing 1% BSA) for 1 hr (4° C.), washed and detected with anti-lacritin antibody (1/1000) by ELISA.

collagen I = collagen I (Homo sapiens, UniProt P02452+P08123); assay: ECM binding ELISA; settings: 0-30 nM lacritin
Description: as §1

collagen IV = assay: ECM binding ELISA; settings: 0-30 nM lacritin
Description: as §1

laminin-1 = assay: ECM binding ELISA; settings: 0-30 nM lacritin
Description: as §1

nidogen/entactin = molecular target: T1, nidogen/entactin (Homo sapiens, UniProt P14543); assay: ECM binding ELISA; settings: 0-30 nM lacritin
T1 sequence (P14543 29-1247): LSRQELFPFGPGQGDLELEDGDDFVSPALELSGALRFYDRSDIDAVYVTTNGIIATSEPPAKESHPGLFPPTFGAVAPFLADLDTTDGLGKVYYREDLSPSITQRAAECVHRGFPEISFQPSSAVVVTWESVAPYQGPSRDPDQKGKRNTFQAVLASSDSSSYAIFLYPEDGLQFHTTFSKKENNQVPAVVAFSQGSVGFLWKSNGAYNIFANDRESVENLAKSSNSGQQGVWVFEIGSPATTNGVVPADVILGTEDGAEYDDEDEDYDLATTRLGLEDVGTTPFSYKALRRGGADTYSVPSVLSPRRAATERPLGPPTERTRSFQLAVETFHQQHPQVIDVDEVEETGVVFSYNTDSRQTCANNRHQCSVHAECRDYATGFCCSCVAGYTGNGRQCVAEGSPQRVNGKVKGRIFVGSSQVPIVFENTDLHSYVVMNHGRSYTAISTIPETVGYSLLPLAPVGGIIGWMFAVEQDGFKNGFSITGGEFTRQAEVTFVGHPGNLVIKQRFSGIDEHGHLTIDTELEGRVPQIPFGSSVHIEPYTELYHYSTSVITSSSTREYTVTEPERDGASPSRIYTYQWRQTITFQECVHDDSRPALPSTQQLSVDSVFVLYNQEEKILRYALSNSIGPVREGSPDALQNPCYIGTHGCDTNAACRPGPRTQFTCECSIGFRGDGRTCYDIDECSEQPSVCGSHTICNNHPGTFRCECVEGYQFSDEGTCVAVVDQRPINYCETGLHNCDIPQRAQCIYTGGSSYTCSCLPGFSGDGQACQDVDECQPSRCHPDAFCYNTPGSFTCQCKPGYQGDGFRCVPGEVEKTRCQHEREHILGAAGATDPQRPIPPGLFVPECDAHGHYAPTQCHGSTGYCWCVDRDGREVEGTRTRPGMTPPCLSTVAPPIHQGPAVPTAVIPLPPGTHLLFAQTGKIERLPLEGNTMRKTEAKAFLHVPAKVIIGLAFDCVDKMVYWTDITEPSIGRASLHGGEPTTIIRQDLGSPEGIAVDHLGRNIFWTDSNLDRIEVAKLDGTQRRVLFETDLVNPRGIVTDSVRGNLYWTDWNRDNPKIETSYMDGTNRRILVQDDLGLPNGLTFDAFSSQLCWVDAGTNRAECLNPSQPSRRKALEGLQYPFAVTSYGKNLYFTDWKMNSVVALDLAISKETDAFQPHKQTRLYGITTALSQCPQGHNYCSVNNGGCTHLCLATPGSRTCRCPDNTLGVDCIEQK
Description: as §1

vitronectin = molecular target: T2, vitronectin (Homo sapiens, UniProt P04004); assay: ECM binding ELISA; settings: 0-30 nM lacritin
T2 sequence (P04004 20-478): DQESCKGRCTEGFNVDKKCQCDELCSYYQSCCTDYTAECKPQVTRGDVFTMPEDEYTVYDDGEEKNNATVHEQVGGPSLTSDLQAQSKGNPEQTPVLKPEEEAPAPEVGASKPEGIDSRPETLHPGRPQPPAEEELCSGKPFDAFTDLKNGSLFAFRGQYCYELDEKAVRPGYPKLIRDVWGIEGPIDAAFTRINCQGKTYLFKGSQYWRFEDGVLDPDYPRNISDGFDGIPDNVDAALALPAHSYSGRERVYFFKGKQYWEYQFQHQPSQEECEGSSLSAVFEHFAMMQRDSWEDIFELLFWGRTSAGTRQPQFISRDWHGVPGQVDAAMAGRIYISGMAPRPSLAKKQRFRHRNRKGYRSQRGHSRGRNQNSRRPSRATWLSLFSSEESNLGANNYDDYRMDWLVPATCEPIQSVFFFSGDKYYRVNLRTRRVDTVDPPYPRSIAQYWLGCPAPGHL
Description: as §1

Chain of collagen I (P02452 162-1218 limits assumed): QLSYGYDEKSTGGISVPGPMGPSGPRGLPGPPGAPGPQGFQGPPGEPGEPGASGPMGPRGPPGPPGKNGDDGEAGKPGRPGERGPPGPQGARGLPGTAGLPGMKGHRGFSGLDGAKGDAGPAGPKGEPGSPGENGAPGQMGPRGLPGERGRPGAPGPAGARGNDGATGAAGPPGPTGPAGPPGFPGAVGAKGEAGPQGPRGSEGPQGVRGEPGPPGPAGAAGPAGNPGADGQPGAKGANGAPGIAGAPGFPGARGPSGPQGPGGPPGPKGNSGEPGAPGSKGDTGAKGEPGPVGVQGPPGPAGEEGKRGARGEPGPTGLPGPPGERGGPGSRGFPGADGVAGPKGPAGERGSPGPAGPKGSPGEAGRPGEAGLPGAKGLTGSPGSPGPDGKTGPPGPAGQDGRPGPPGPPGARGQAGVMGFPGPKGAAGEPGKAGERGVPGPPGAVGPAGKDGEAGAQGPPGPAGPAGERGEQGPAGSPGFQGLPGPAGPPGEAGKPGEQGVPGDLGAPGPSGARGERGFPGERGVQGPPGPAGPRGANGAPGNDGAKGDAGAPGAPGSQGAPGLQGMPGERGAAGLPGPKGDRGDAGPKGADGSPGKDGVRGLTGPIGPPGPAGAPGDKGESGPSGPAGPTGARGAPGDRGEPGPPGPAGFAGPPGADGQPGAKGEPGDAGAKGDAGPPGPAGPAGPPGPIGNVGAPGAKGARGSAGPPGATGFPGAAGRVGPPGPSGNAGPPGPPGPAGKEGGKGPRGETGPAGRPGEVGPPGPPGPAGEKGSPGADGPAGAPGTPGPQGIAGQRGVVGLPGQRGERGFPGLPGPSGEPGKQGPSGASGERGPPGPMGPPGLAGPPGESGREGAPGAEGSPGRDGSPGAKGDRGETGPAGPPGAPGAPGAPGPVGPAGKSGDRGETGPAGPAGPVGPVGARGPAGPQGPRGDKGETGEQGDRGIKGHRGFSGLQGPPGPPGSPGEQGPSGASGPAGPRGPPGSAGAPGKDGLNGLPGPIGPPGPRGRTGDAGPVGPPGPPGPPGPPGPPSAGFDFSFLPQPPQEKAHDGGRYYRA
Chain of collagen I (P08123 80-1119 limits assumed): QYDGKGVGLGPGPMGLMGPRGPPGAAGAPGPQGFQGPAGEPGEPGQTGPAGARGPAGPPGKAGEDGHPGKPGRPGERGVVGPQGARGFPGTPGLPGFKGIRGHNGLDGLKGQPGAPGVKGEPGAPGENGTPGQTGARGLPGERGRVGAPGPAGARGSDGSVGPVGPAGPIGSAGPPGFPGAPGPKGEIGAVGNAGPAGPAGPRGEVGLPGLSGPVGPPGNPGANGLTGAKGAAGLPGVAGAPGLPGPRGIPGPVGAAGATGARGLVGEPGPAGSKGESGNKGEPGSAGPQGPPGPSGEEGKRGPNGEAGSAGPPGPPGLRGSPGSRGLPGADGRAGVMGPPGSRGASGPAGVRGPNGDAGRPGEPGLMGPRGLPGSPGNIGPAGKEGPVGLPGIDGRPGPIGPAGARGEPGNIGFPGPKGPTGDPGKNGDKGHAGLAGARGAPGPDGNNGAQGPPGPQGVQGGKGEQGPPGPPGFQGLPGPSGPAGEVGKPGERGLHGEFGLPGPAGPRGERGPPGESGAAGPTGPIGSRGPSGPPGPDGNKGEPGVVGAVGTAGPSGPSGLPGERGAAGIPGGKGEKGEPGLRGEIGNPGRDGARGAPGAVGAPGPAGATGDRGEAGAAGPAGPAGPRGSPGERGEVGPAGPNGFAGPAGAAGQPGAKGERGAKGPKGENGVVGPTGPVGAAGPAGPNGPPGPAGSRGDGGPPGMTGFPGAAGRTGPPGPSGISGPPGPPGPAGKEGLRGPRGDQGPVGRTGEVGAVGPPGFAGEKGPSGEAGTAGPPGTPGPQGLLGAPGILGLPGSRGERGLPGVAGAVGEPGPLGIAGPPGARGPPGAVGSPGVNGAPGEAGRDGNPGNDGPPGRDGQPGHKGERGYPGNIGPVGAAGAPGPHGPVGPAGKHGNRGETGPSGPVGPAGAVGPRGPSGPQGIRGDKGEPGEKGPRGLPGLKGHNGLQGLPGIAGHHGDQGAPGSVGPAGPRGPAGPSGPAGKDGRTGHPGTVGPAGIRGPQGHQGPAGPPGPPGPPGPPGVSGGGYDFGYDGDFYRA

B1: lacritin: recombinant human lacritin from E. coli; mature 119 residue fragment (SEQ ID NO:10) of native lacritin SEQ ID NO:4 (protein, listed as Homo sapiens)
chain: EDASSDSTGADPAQEAGTSKPNEEISGPAEPASPPETTTTAQETSAAAVQGTAKVTSSRQELNPLKSIVEKSILLTEQALAKAGKGMHGGVPGGKQFIENGSEFAQKLLKKFSLLKPWA
[1]
  rapidity of lacritin-dependent calcium mobilization: 20 to 30 s
[1]; serum-free
  calcium signals: rapid and sustained calcium waves
ECM binding ELISA
  binding to heparin: No binding
Collagen I
  binding to collagen I: No binding
Collagen IV
  binding to collagen IV: strong basement membrane binding
laminin-1
  binding to laminin-1: strong basement membrane binding
nidogen/entactin
  binding to nidogen/entactin: strong basement membrane binding
vitronectin
  binding to vitronectin: remarkable avidity
